Values belong to the molecule of their own block, whether it stands above or below them.
Columns and labels:
[1] = target: Flag-HIF-1α (mouse HIF-1α in pCVM-Flag vector, expressed in transfected cells) (mouse) (UniProt Q61221); experiment: cell-based or functional assay
[2] = target: T1, Flag-HIF-1α (mouse HIF-1α in pCVM-Flag vector, expressed in transfected cells) (mouse, UniProt Q61221-2 1-822, limits assumed); experiment: co-expression in 293T cells, immunoprecipitation of Flag-HIF-1α with M2 beads, immunoblot
T1 construct: not shown: Flag tag
Protocol: Immunoprecipitation and Western blotting. For immunoprecipitation, cells were harvested in lysis buffer containing 50 mM Tris-HCl pH7.5, 150 mM NaCl, 0.5% NP40, 1 mM EDTA, 1 mM sodium orthovanadate, 1mM PMSF, 10 μg/ml aprotinin, 10 μg/ml leupeptine and 10 μg/ml pepstatin A. To immunoprecipitate Flag-tagged proteins, lysates were incubated with M2 beads (Sigma) overnight, the beads were washed 3 times, and precipitated proteins were eluted with 1 mg/ml of flag peptide. To immunoprecipitate endogenous proteins, cells lysates were incubated with 3 μg of primary antibodies overnight, and followed by incubation with Protein G beads for 1 h. After washing 3 times, the precipitated proteins were eluted with SDS loading buffer. To extract whole cell lysate, cells were harvested using RIPA buffer (50 mM Tris-HCl (pH7.5), 150 mM NaCl, 1% Triton X-100, 0.1% SDS, 0.1% Na-deoxycholate, 1 mM EDTA, 1 mM sodium orthovanadate, 1 mM PMSF, 10 μg/ml aprotinin, and 10 μg/ml leupeptine). Cell lysates were subjected to SDS-PAGE and proteins transferred onto a nitrocellulose membrane (Osmonics Inc.). The membrane was probed with primary antibodies followed by a secondary antibody conjugated with fluorescent dye and detected by the Odyssey detecting system ([…]).

T1 sequence (Q61221 other isoform, or with tags, fused parts or gaps limits assumed): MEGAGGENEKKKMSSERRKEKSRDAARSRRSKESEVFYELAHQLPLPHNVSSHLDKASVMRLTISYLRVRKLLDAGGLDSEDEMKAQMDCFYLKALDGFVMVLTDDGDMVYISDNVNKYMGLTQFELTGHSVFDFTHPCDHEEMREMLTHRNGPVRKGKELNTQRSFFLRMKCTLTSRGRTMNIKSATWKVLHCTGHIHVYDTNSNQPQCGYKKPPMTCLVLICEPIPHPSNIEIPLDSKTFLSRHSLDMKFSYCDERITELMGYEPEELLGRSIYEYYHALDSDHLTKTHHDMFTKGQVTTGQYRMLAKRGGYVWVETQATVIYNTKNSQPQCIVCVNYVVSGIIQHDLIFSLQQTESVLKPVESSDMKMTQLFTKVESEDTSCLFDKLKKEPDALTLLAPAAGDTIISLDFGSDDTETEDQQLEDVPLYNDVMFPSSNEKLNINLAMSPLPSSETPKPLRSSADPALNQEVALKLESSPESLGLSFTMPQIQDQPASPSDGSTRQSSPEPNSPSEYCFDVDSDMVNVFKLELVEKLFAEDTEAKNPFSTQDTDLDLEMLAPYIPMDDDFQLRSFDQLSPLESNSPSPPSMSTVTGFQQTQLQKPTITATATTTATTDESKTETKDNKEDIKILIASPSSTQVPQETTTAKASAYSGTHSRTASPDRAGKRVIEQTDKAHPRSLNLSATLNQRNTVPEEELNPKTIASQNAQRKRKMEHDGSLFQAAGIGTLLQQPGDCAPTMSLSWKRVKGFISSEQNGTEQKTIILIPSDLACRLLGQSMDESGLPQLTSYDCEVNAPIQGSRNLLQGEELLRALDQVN
Flag-HIF-1α (mouse HIF-1α in pCVM-Flag vector, expressed in transfected cells) (mouse), sequence (Q61221 other isoform, or with tags, fused parts or gaps limits assumed): as above

- HRE-Luc luciferase activity in TRAMP-C cells [1]: 6 fold
Molecule: exogenous FoxA2 expressed in TRAMP-C cells (luciferase assay of FIG. 3A)

- binding result [2]: no binding
B1: HA-FoxA1 (HA-tagged rat FoxA1 in pcDNA3) (other, UniProt P23512 1-466, looked up)
chain: MLGTVKMEGHESNDWNSYYADTQEAYSSVPVSNMNSGLGSMNSMNTYMTMNTMTTSGNMTPASFNMSYANPGLGAGLSPGAVAGMPGGSAGAMNSMTAAGVTAMGAALSPGGMGSMGAQPAASMNGLGPYAAAMNPCMSPMAYAPSNLGRSRAGGGGDAKTFKRSYPHAKPPYSYISLITMAIQQAPSKMLTLSEIYQWIMDLFPYYRQNQQRWQNSIRHSLSFNACFVKVARSPDKPGKGSYWTLHPDSGNMFENGCYLRRQKRFKCEKQPGAGGGSGGGGSKGVPENRKDPSGPVNPSAESPIHRGVHGKASQLEGAPAPGPAASPQTLDHSGATATGGGSELKSPASSSAPPISSGPGGWICTPLSPTWLAPHESQLHLKGAPHYSFNHPFSINNLMSSSEQQHKLDFKAYEQALQYSPYGATLPASLPLGGASVATRSPIEPSALEPAYYQGVYSRPVLNTS
notes: not shown: HA tag
